In US7033766B2, “Construction and screening of lantibody display libraries” (University of Maryland Office of Technology …, priority 2000, dated 2006):

System: anti-sublancin antibodies
Test: binding of anti-sublancin polyclonal antibodies to the displayed peptide (peroxidase colour reaction, magnetic beads)
Settings: rabbit antibodies raised against sublancin-KLH conjugate
Procedure: The transformed host was cultured in Medium A to allow the Lantibody Display Peptide to be expressed. Expression was monitored by observing the appearance of the Display Peptide in the cytoplasm of the cell, the membrane, the cell wall and in the extracellular medium. The peptide was detected using polyclonal antibodies raised in rabbits against a sublancin-KLH conjugate as an antigen.
To explore this hypothesis, cells expressing the Lantibody Display Peptide as shown in FIG. 8 were centrifuged out of the culture medium and resuspended in buffer. The cell suspension was treated with anti-sublancin antibodies, and washed to remove any unbound antibody. To determine whether anti-sublancin antibodies were bound to the surface of the cells, goat anti-rabbit antibodies that were conjugated with horseradish peroxidase were added and allowed to adsorb to any antibodies on the surface of the cells. The cells were washed and the peroxidase color reagent was added.

B1: sublancin Display Peptide: mature sublancin segment (1–37), a 20-residue polyglycine spacer (38–57) and the subtilin leader segment (58–81) (protein)
chain: MEKLFKEVKLEELENQKGSGLGKAQCAALWLQCASGGTIGCGGGAVACQNYRQFCRGGGGGGGGGGGGGGGGGGGGMSKFDDFDLDVVKVSKQDSKITPQ
modifications: The peptide sequence of sunA-PG20-SL.
  binding to polyclonal anti-sublancin antibody: recognize and bind to a target substrate
Listed as Sublancin Display Peptide
  binding to polyclonal anti-sublancin antibody: responsible for the binding to sublancin antibodies
